Experimental findings from patent US6084068, “Elongin A and C functional domains” (Oklahoma Medical Research Foundation, dated 2000) are described below.

This assay deals with wild type Elongin B (rat, UniProt P62870). Kind of assay: refolded with wild type Elongin B; TSK DEAE-NPR HPLC, SDS-PAGE, silver staining. As for the experimental part:
Figure 10A: FIG. 10A. […] Aliquots of the indicated column fractions were analyzed by SDS-PAGE, and proteins were visualized by silver staining. Figure 10B: FIG. 10B. N-terminal, C-terminal, and internal Elongin C deletion mutants were assayed for their abilities to form Elongin BC complexes as described.
~6 µg of Elongin B was mixed with ~6 µg of either wild type or mutant Elongin C and diluted 5-fold with 40 mM Hepes-NaOH (pH 7.9), 100 mM KCl, 2 mM DTT, 50 µM ZnSO_4, 0.1 mM EDTA, and 10% (v/v) glycerol. After incubation for 90 min on ice, the mixtures were dialyzed at 4° C. overnight against 40 mM Tris-HCl (pH 7.9), 0.1 mM EDTA, 10% (v/v) glycerol, and 40 mM KCl. Following dialysis, the mixtures were centrifuged at 60,000×g for 15 min at 4° C. The resulting supernatants were applied to TSK DEAE-NPR columns (35 mm×4.6 mm, Toso-Haas) pre-equilibrated in 40 mM Tris-HCl (pH 7.9), 0.1 mM EDTA, 1 mM DTT, 10% (v/v) glycerol, and 40 mM KCl and fractionated using a SMART microchromatography system (Pharmacia) at 8° C. The columns were eluted at 0.3 ml/min with a 3 ml linear gradient from 0.04 to 0.5M KCl in 40 mM Tris-HCl (pH 7.9), 0.1 mM EDTA, 1 mM DTT, and 10% (v/v) glycerol. Aliquots of each column fraction were analyzed by 10% Tris-Tricine SDS-polyacrylamide gel electrophoresis, and the proteins were visualized by silver staining.

B1: Elongin C internal deletion mutant C(Δ61-70) (other)
chain: MDGEEKTYGGCEGPDAMYVKLISSDGHEFIVKREHALTSGTIKAMLSGPGQFAENETNEVSKVCMYFTYKVRYTNSSTEIPEFPIAPEIALELLMAANFLDC
In the case of B1, the binding result is given as “binds”.

B2: Elongin C internal deletion mutant C(Δ71-80) (other)
chain: MDGEEKTYGGCEGPDAMYVKLISSDGHEFIVKREHALTSGTIKAMLSGPGQFAENETNEVNFREIPSHVLVRYTNSSTEIPEFPIAPEIALELLMAANFLDC
On to B2, for which the binding result is on record as “binds”.

B3: Elongin C internal deletion mutant C(Δ41-50) (other)
chain: MDGEEKTYGGCEGPDAMYVKLISSDGHEFIVKREHALTSGQFAENETNEVNFREIPSHVLSKVCMYFTYKVRYTNSSTEIPEFPIAPEIALELLMAANFLDC
B3: the binding result is “binds”.

B4: Elongin C internal deletion mutant C(Δ51-60) (other)
chain: MDGEEKTYGGCEGPDAMYVKLISSDGHEFIVKREHALTSGTIKAMLSGPGNFREIPSHVLSKVCMYFTYKVRYTNSSTEIPEFPIAPEIALELLMAANFLDC
Take B4: the binding result is “binds”.

B5: Elongin C deletion mutant C(23-112) (other)
chain: SSDGHEFIVKREHALTSGTIKAMLSGPGQFAENETNEVNFREIPSHVLSKVCMYFTYKVRYTNSSTEIPEFPIAPEIALELLMAANFLDC
Turning to B5, the binding result is “no binding”.

B6: Elongin C internal deletion mutant C(Δ81-90) (other)
chain: MDGEEKTYGGCEGPDAMYVKLISSDGHEFIVKREHALTSGTIKAMLSGPGQFAENETNEVNFREIPSHVLSKVCMYFTYKPEFPIAPEIALELLMAANFLDC
Take B6: the binding result was “binds”.

B7: Elongin C internal deletion mutant C(Δ91-100) (other)
chain: MDGEEKTYGGCEGPDAMYVKLISSDGHEFIVKREHALTSGTIKAMLSGPGQFAENETNEVNFREIPSHVLSKVCMYFTYKVRYTNSSTEILELLMAANFLDC
With B7, the binding result was “binds”.

B8: Elongin C alanine scanning mutant C(Ala19-21) (other)
chain: MDGEEKTYGGCEGPDAMYAAAISSDGHEFIVKREHALTSGTIKAMLSGPGQFAENETNEVNFREIPSHVLSKVCMYFTYKVRYTNSSTEIPEFPIAPEIALELLMAANFLDC
Consider B8, for which the binding result was “binds”.

B9: Elongin C alanine scanning mutant C(Ala22-24) (other)
chain: MDGEEKTYGGCEGPDAMYVKLAAADGHEFIVKREHALTSGTIKAMLSGPGQFAENETNEVNFREIPSHVLSKVCMYFTYKVRYTNSSTEIPEFPIAPEIALELLMAANFLDC
On to B9, for which the binding result is reported as “binds”.

B10: Elongin C alanine scanning mutant C(Ala28-30) (other)
chain: MDGEEKTYGGCEGPDAMYVKLISSDGHAAAVKREHALTSGTIKAMLSGPGQFAENETNEVNFREIPSHVLSKVCMYFTYKVRYTNSSTEIPEFPIAPEIALELLMAANFLDC
Regarding B10, the binding result is on record as “no binding”.

B11: Elongin C alanine scanning mutant C(Ala25-27) (other)
chain: MDGEEKTYGGCEGPDAMYVKLISSAAAEFIVKREHALTSGTIKAMLSGPGQFAENETNEVNFREIPSHVLSKVCMYFTYKVRYTNSSTEIPEFPIAPEIALELLMAANFLDC
For B11, the binding result is “no binding”.
